The results in this text go back to patent publication US20260258465, “NUCLEIC ACID-GUIDED DNA SYNTHESIS” (The Trustees of Columbia University in the City of New York, published 2026).

This series addresses T1, KpnDRT2 reverse transcriptase (Klebsiella pneumoniae).
T1 chain: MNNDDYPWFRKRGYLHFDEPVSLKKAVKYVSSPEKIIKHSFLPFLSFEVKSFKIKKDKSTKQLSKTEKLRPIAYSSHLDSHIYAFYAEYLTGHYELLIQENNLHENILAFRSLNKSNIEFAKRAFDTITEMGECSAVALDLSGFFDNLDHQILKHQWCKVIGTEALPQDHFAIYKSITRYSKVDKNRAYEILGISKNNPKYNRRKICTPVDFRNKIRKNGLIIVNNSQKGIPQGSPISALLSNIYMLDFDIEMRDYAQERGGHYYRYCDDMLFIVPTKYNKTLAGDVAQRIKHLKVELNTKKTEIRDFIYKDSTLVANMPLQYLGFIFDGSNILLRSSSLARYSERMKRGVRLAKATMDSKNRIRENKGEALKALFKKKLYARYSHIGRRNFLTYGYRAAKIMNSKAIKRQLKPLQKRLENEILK
In words: EMSA; 20 mM HEPES pH 7.5, 5 mM MgCl2, 200 mM NaCl, 37 C. The following applies: tags: N-terminal His6-GST removed by TEV; C-terminal StrepII; stem-loops SL1-SL8. Here is the method: To test binding of the ncRNA by the RT, the purified ncRNA was mixed with increasing amounts of the RT in reaction buffer (20 mM HEPES pH 7.5, 5 mM MgCl₂, 5% glycerol, 200 mM NaCl, and 1 mM DTT). Samples were incubated at 37° C. for 15 minutes and analyzed by electrophoretic mobility shift assay (EMSA). The shift in mobility at higher concentrations of RT enzyme indicates binding of the ncRNA by the RT (FIG. 14A).

B1: KpnDRT2 ncRNA WT (ssRNA)
RNA: GCCCUAAACAAAGGUUUAGGGGUAUUGUACAGGUUGUCAAGCCUCCCACAGGUCUUGGUGAAACCAAUCACUGUGACGACGGUAAGCAACACUUGGAUGAUAUUCAUAAUUGACUCCACGCUACUGAUUACAUUAUACAGCAUAUCUAACAUUUGCGGCGAGGUUCACAAUUUGUAUUUAGGUACUGAUUGUGGAUGAGAAGGUUGGAGAAAGACCACUUGGUUAAGCCGGAGGAUGUGUCCUAGAAUUGUCGCUAUUCUGUCAUCCUCCGGUUUUGCUAA
As to B1, the binding result is recorded as “binds”.
